Data on 1 protein can be found in article PMC6054272, “Arabidopsis SKP1-like protein13 (ASK13) positively regulates seed germination and seedling growth under abiotic stress” (Journal of Experimental Botany, 2018).

Broadly, the stoichiometry N is a count of units in the complex or per binding partner.

The data set concerns the molecule itself. In words: SEC; purified recombinant His-tagged ASK13; Superose 6 column by the legend; fractions confirmed by dot blot with an anti-His antibody. (In general: Size exclusion chromatography separates by hydrodynamic size, large species first.)

B1: Recombinant His-tagged ASK13 (natural protein, Arabidopsis thaliana, UniProt Q9M1X5 1-154, looked up)
chain: MSKMVMLLSSDGESFQVEEAVAVQSQTIAHMIEDDCVANGVPIANVTGVILSKVIEYCKKHVVSDSPTEESKDELKKWDAEFMKALEQSSTLFDVMLAANYLNIKDLLDLGCQTVADMITGKKPDEIRALLGIENDFTPEEEEEIRKENQWAFE
notes: ASK13 (SKP1-like protein13), Arabidopsis thaliana, At3g60010; sub-cloned into pET23d; Found as monomer and dimer; also called recombinant ASK13; his-tagged ASK13 protein; not shown: His tag, C-terminal, kept
In the case of B1, the “stoichiometry N” value was 2.
